# Reference: the supplement of paper PMC12636428
# Test system: Saccharomyces cerevisiae
# Test: transcriptional activation domain activity (GFP:mCherry ratio, weighted mean of sorted bins, harmonized to initial dataset scale) (arbitrary fluorescence ratio units); higher = stronger transcriptional activation
# Settings: beta-estradiol 1 µM; induction time 4 h
# Experimental: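 53-aa protein tiles (fungal proteins plus yeast TF control tiles) fused C-terminally to a DBD-estrogen-binding domain-mCherry synthetic TF, integrated in S. cerevisiae (URA3 locus) with a GFP reporter. Cells were induced with 1 uM beta-estradiol for 4 h at 30 C, FACS-sorted into 8 bins by GFP:mCherry ratio and barcodes sequenced. Activity is the read-weighted mean bin fluorescence (GFP:mCherry), averaged over barcodes (median 12); tiles under 50 reads were discarded. New active-learning values were harmonized by linear fit onto the scale of the initial (Hummel et al.) dataset. The assay saturates at low and high signal.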
row,Sequence,transcriptional activation domain activity
1,ALKLLVDKVEDPKKNGPKFLKRAQLVVTGFNSQLKARSQRIGHFVNLLQVYLT,61600
2,ALKVVVRVKMFGIGPLIYCSCLFVLLFSVVLLLLLAALYLMLQIYAALVVSAV,47100
3,ALLAISLTSFLCSSVFLEIETWCKKYRSHLLLVLMIPMVEPLISLFISFMWLL,62500
4,ALLCLCWAPEPRGLLALGIGCLVFLFLYFYPCCFFFFFFYSYLCFCTVVLFFP,53300
5,ALLFLNTLLELLESYHKSQYLAEILSRLQVDWRSLWSWLSVFIRSYANLKMGT,28300
6,ALLKLLVMMLWEIEFYEPCFGALRLMDYITSEICPDSNLSAEATLLRIRTLIR,58200
7,ALLNGQCGGANYTGPTVCVCGLNIIQGFMRIRKCSSLYMIVLALKLIFITFFS,90200
8,ALLSSLHFGLGSHFRDIILKHPQWLIPLMRWLYIQNATYFNCSGIVKMSLLFQ,46400
9,ALNAIIEGFQLFRSAFQPASLSVSMVHSVSVLVNWPSPYFTSLLLPGYDIGFP,62800
10,ALNDPSILETLSPFFQPFGVDVAHLPMTNPPIFQSSLPGCDEPIRRRRISISN,81300
11,ALNITYLFLGTYGWEYFGSCSVECALVCGRLAFRLSLIPYVLGRTSLLIYFIL,41000
12,ALNTFLDGLVFQLFPMVADLWIAAAYFFVVFDAYYSLMVISVTWFYIWMTIYM,55200
13,ALNWYFLGTTMYFLYGESVIYYFKHILLVDRIFLPLATHHRFISFMLYILGFV,66300
14,ALPERIKTFHAHGIFLALHCFLLQHGPQPISIWLLLALIKGRRRCLFPSIFFC,36200
15,ALRDSKSSDPKVKKEGEDFLAQLRIGKSYLHGLDAEGRPMCIVRARLHRAGEQ,48900
16,ALRHRYIIGTSLCRLFIPLYFFACPYNTLFQDPNPLVWILLLYVSAQALLLLL,63900
17,ALRLCRSLLFLCFPFTPIHFFWGSYSDFPPFFFLPAFPRLTLSLLLFYLLPFS,55100
18,ALRREYLTLNGFMPSRINWAIQSSGVDYLHLLIIAMEHLITRFRLSARLAITV,53800
19,ALRRRTTDDGRLPREDLVHSEISVAVVSSPLSFASRFSPTPAVAVLVTALPVV,80600
20,ALSAWIIIQGYRVQWKTILLHDNLFVFTAASKSWVFAHAVYRFVLLTLPCFGS,40700
21,ALSSASSALSPLSGDPITTTETNKSYPLDSEQSLLEPDKTEEDAINQSKESNM,15300

row,Sequence,transcriptional activation domain activity
1,ALSTADGGRVPAKRARKAINCGPCRLSKLKCDRERPCSSCKLRGTTASCYQGQ,34000
2,ALSTRPFVLSDMIFFFGVGTLITLPIPFLVIYDYPYKKPRTYQVYLLICVWAW,61500
3,ALTLEYFYFECSTPVPDGLLTDPLPPLPKLLVIHFFFYLSQHTIYLLLHILSQ,60200
4,ALTLVDPQGVLKCRIVLFCVIRGSVMVLGWWNYKLMHRWLLPGIIQCLSNIPV,64500
5,ALVADPEYQRELDYMANGKQLLVPLRYLLNLVWRYCHGAQTICFSFFLLHGRN,64200
6,ALVLLYIIRFVCTTLAKRFPSKSKLFFFMSTLRTVFVILLYTMISWLVNRHSR,44800
7,ALVRCCLSKVVYVALEFISICTMPESAKGVINLIDNLSPYARKDLVHLRGWVC,51800
8,ALVTVLLLLMGYLPHLNTVTLTVRTFRNRLSHHDFSQHELAIFLDLLPRRCPN,98800
9,ALYFMVIFTSHIIYTFTLILGRPIVQVIPALYGLLSFLADSDLLFILPLCRMG,55000
10,ALYGLQAVVFVVIPLLQIIQIALILCQFFVANYFTIFSFVNVLFIIVAVFAFL,41400
11,ALYLWTRHVGFANFVKLYFVPFMCVNHWIVMLTYLHHCDPTIPYFRRTQWSFL,30800
12,ALYSLFIECTLAPMLLKAIKDRVGEITLDFCWRAYKVYLTSICYLWKNVSLII,40600
13,ALYSLKGRELGWLCLTICTFDGKSWMEFGAFSRRGLFTYNYGLLQPNTKRIAV,35700
14,AMAEKAAEEKPAAKKRGRPPKGPTMVEVVVEAPPAKKRGRPAKEDGAAAAATA,20000
15,AMDGVAQLHALLGGCHTRLAGLVFSTFEAAVLLVYLCVDPMFPRDCPHQHVPP,57400
16,AMERLRAAEKTAKEKRLCLYANAPAANSSSKGTTAATSRGGAFEATVVRVWSG,61100
17,AMFAVSILIMIQVNTSAVFFAVDTMLLYLCMELGFTFIYTILVTSRLLVMRCQ,56600
18,AMKDIEIVKDEETGAPIVRLRGEAAAAAKKAGVQDITLSISHSDNQAIAVAVA,58900
19,AMLMSLFVSVFCVYGVFIHVAASALQYQIVFFSPCIYMMLICGLSFLCCESPR,75700
20,AMPTFDLVMWYREFQRILLEMRAYVIYKATVLPRWSNPSYDRPFPVLPVRGVI,48600
21,AMRSWSGLMVLSMYDFRPIRSLIASILFPNAAIRETVLDLLFSLLRIKPPAWA,38100

row,Sequence,transcriptional activation domain activity
1,ANDDDGEEQEEQEEKPKKKRKRTASTPAETAGAGPSKPKPRPRPKKTSAVVPP,28200
2,ANEEAEPEHPEPAAEANDSTGREGRGRGKRGRDRGRGRGRGRGGRSGRGGASG,27600
3,ANEYNVVCSILVFWSDTVPLWGFFLIFWFFFLGFQLLGVESFGEAEFWLALLK,62200
4,ANGDDSAAPKPEGQEDKPVESNGASASAAAPSEPQQQEGQPKAEPAEPAPATV,26400
5,ANGSSATTPEPDGKTAAGTAAVPKRKQTEKKANGPTKKQKTGSPKKGGRKGAS,27700
6,ANHQIYLDWWYTWCLAYFMDTHRDVCIVLKKSLKWVPIFGWAMHQFFNFIFLA,41800
7,ANHQVYADWWYAWCLTYYTGTYKDVFIVLKKSLKWVPVLGWGMQSFRFIFLAR,79000
8,ANHQVYVDWWYTWCLTYFMETHRDVCIVLKKSLKWIPVAGWGMQFFKFIFLAR,39400
9,ANLAFPDDNSTNIQLQPFSESQSQNKFDYDMFFRDSSKEGNNLFGEFLEDDDD,92800
10,ANLYVVLTLYSYTWIQVLIVSLSILLYFVFIAIYSQFNTFIFAGHIRLFGNGL,57500
11,ANPEPTDDDFHIFGGRHVFFTTDDPWLIFLGFILQHLDRLLNRMLFWWCVEWV,56900
12,ANPLSDSASFLSEENEDDAFGALNYNSLDATTMSAFDNNVDPFNILKSSPAQD,66600
13,ANQCGEVDMLSRILLIVVTYLVILRRYRDALDIIERQALPMTLALGRPLWIGR,62400
14,ANRCSFFALEFSVGISWSTVGADFYVYYPTNTSKRLTFFMTWAGLWISLIFVN,47200
15,ANRIAIRLFHFLLECPDEMTRLVAIKKYIKNTYMIPTYLVTVNCILRLAGYWK,55900
16,ANRRMSLVCFLFIVVRYVSIAALVLNGVGFYGTMFDMDSCTHFRLAPPVTKMV,44900
17,ANVSATAAPIVAVKRGRGRPRKDPSETQAAKKAAAAAVAPDGAKRGRGRPRLV,45200
18,APAAADEEQEGESKNKKKKKKKGAKKAEADEEAVEAAAPAKGKKKGGAPIAAL,54700
19,APAAEPVAAATIEEAPKETAEASTATEETAEEKKEEKEKKEKEKKAKLGRRLS,30700
